Assay results taken from US20230313187A1, “MODIFICATIONS OF MAMMALIAN CELLS USING ARTIFICIAL MICRO-RNA TO ALTER THEIR PROPERTIES AND THE COMPOSITIONS OF THEIR PRODUCTS” (DNA TWOPOINTO INC., priority 2020, published 2023).

Test system: Cricetulus griseus GDP-Mannose 4,6-dehydratase (GMD), and GDP-fucose transporter 1 (GFT) mRNA
Assay: Inhibition of antibody fucosylation in CHO with amiRNA targeting GMD and GFT
Format: cell-based
Settings: 14-day fed batch
Source text: A multi-hairpin amiRNA gene was designed to target both Cricetulus griseus GDP-Mannose 4,6-dehydratase (GMD), and GDP-fucose transporter 1 (GFT). […]
Multi-hairpin amiRNA sequence with SEQ ID NO: 200 was placed to the 3′ of an open reading frame encoding a red fluorescent protein (with nucleotide sequence SEQ ID NO: 279) and followed by a rabbit globin polyadenylation sequence. […]

B1: SEQ ID NO: 200: four-hairpin amiRNA, two guides to Cricetulus griseus GMD mRNA (35, 36) and two to GFT mRNA (41, 42) (nucleic acid)
chain: ATCTGATCTTCTGAAGAAAATATATTTCTTTTTATTCATAGCTCTTAACTAGTGGTGATAGCAATGTCAGCAGTGCCTTTAAACTTCTTGATTTCCCAAAGTGAAGCCACAGATGTTTGGGAAATAAAGAAGTTTACAAGTAAGGTTGACCATACTCTACTCTAGTTATATTCTTTAGGCACGAATGTGTGTTTAAAAAAAATAAAAACTAGTGGTGATAGCAATGTCAGCAGTGCCTTCCTCTTAGATCATATTCCAAGGTGAAGCCACAGATGCTTGGAATATAATCTAAGAGGCAAGTAAGGTTGACCATACTCTACTCTAGAGTTGTGTTTTAATGTATATTAATGTTACTAATGTGTTTACTAGTGGTGATAGCAATGTCAGCAGTGCCTTTCAAGTAAAATGAGTATGTGAGTGAAGCCACAGATGTCACATACTCCTTTTACTTGACAAGTAAGGTTGACCATACTCTACTCTAGGTTATTTTTAGTATGATTCTGTAAAAATGAATTAATACTAACTAGTGGTGATAGCAATGTCAGCAGTGCCTTCAATTAGTGGGATCACAACCCGTGAAGCCACAGATGGGGTTGTGATACCACTAATTGCAAGTAAGGTTGACCATACTCTACTCTAGTCAGTTTTATTGATAGTCTTTTCAGTATTATTGATAATCTT
B1 was tested, and the “G0 + G1 % (area)” value (afucosylated antibody heavy chain, CMV promoter) was 100 % (area) and the “G0F + G1F (% area)” value (fucosylated antibody heavy chain, BDL=below detection limit, listed as 200) was “no fucose was detectable by mass spectroscopy and BDL”.
